Results reported in patent publication US20090149339A1 (published 2009).
Ends that are not written are not given here. * marks the point of attachment. Biotin = O=C1N[C@H]2[C@H](CS[C@H]2CCCCC(=O)*)N1

B1: CD49F (Aform, alpha 6) C-terminal PL peptide AA12L, biotinylated (peptide)
peptide: Biotin-HKAEIHAQPSDKERLTSDA
B2: CDW128A (IL8RA) C-terminal PL peptide AA29.1L, biotinylated (peptide)
peptide: Biotin-ARHRVTSYTSSSVNVSSNL

Key:
[1] = target: T1, GST-TAX2 PDZ domain fusion protein (human tax interaction protein 2 AA54-140; PDZ domain 1 of 1) (human, UniProt P08515 1-218 = GST); test: A/G assays
T1 construct: also called TX 2
T1 sequence (P08515 1-218, tags or fused parts left off): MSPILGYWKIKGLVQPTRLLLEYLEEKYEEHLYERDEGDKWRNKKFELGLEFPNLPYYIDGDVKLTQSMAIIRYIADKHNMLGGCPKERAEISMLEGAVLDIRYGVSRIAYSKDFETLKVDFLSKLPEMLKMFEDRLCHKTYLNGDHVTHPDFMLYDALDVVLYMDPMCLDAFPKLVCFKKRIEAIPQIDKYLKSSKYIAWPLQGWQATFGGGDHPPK

[2] = target: GST-PSD95 PDZ domain fusion protein (human post-synaptic density protein 95 AA387-724; PDZ domains 1-3 of 3) (human, UniProt P08515 1-218 = GST); test: A/G assays
GST-PSD95 PDZ domain fusion protein (human post-synaptic density protein 95 AA387-724; PDZ domains 1-3 of 3), sequence (P08515 1-218, tags or fused parts left off): as above

[3] = target: GST-NOS1 PDZ domain fusion protein (human neuronal nitric oxide synthase; PDZ domain 1 of 1) (human, UniProt P08515 1-218 = GST); test: A/G assays
GST-NOS1 PDZ domain fusion protein (human neuronal nitric oxide synthase; PDZ domain 1 of 1), sequence (P08515 1-218, tags or fused parts left off): as above

[4] = target: T2, GST-TAX43 PDZ domain fusion protein (human tax interaction protein 43 AA15-85; PDZ domain 1 of 1) (human, UniProt P08515 1-218 = GST); test: A/G assays
T2 construct: also called TX 43
T2 sequence (P08515 1-218, tags or fused parts left off): as above

[5] = target: T3, GST-KIAA0559 PDZ domain fusion protein (KIAA0559 AA766-870; PDZ1 of 1) (UniProt P08515 1-218 = GST); test: A/G assays
T3 construct: also called K559
T3 sequence (P08515 1-218, tags or fused parts left off): as above

[6] = target: GST-PTN-4 PDZ domain fusion protein (protein-tyrosine phosphatase meg1 AA774-862; PDZ domain 1 of 1) (UniProt P08515 1-218 = GST); test: A/G assays
GST-PTN-4 PDZ domain fusion protein (protein-tyrosine phosphatase meg1 AA774-862; PDZ domain 1 of 1), sequence (P08515 1-218, tags or fused parts left off): as above

[7] = target: T4, GST-MPP2 PDZ domain fusion protein (maguk p55 subfamily member 2 (DLG2) AA185-273; PDZ domain 1 of 1) (UniProt P08515 1-218 = GST); test: A/G assays
T4 construct: also called MMP2
T4 sequence (P08515 1-218, tags or fused parts left off): as above

[8] = target: T5, GST-NeDLG PDZ domain fusion protein (presynaptic protein sao102, neuroendocrine-dlg; PDZ domains 1-2 of 3) (UniProt P08515 1-218 = GST); test: A/G assays
T5 construct: also called NeDLG1

[9] = target: GST-prIL16 PDZ domain fusion protein (putative interleukin 16 precursor AA170-383; PDZ domains 1-2 of 2) (UniProt P08515 1-218 = GST); test: A/G assays
GST-prIL16 PDZ domain fusion protein (putative interleukin 16 precursor AA170-383; PDZ domains 1-2 of 2), sequence (P08515 1-218, tags or fused parts left off): as above

[10] = target: GST-LIMK2 PDZ domain fusion protein (human LIM domain kinase 2 AA185-275; PDZ domain 1 of 1) (human, UniProt P08515 1-218 = GST); test: A/G assays
GST-LIMK2 PDZ domain fusion protein (human LIM domain kinase 2 AA185-275; PDZ domain 1 of 1), sequence (P08515 1-218, tags or fused parts left off): as above

[11] = target: T6, GST-SYN1a PDZ domain fusion protein (alpha1-syntrophin AA96-189; PDZ domain 1 of 1) (UniProt P08515 1-218 = GST); test: A/G assays
T6 construct: also called SYN 1 alpha; SYNTR 1 alpha

[12] = target: GST-DVL1 PDZ domain fusion protein (human dishevelled segment polarity protein homolog AA248-340); PDZ domain … (human, UniProt P08515 1-218 = GST); test: A/G assays
GST-DVL1 PDZ domain fusion protein (human dishevelled segment polarity protein homolog AA248-340); PDZ domain …, sequence (P08515 1-218, tags or fused parts left off): as above

[13] = target: GST-LIM PDZ domain fusion protein (Human LIM protein AA29-112; PDZ domain 1 of 1) (human, UniProt P08515 1-218 = GST); test: A/G assays
GST-LIM PDZ domain fusion protein (Human LIM protein AA29-112; PDZ domain 1 of 1), sequence (P08515 1-218, tags or fused parts left off): as above

[14] = target: GST-MPP1 PDZ domain fusion protein (55 Kd erythrocyte membrane protein AA101-186; PDZ domain 1 of 1) (UniProt P08515 1-218 = GST); test: A/G assays
GST-MPP1 PDZ domain fusion protein (55 Kd erythrocyte membrane protein AA101-186; PDZ domain 1 of 1), sequence (P08515 1-218, tags or fused parts left off): as above

[15] = target: GST-AF6 PDZ domain fusion protein (af-6 protein AA985-1077; PDZ domain 1 of 1) (UniProt P08515 1-218 = GST); test: A/G assays
GST-AF6 PDZ domain fusion protein (af-6 protein AA985-1077; PDZ domain 1 of 1), sequence (P08515 1-218, tags or fused parts left off): as above

[16] = target: GST-MINT3 PDZ domain fusion protein (human MINT3 AA11-52; PDZ domain 1 of 1) (human, UniProt P08515 1-218 = GST); test: A/G assays
[17] = target: GST-TIAM1 PDZ domain fusion protein (T-lymphoma invasion and metastasis inducing protein 1 AA1001-1088); PDZ 1 … (UniProt P08515 1-218 = GST); test: A/G assays
[18] = target: T7, GST-TAX40 PDZ domain fusion protein (human tax interaction protein 40 AA35-137; PDZ domain 1 of 1) (human, UniProt P08515 1-218 = GST); test: A/G assays
T7 construct: also called TX 40
T7 sequence (P08515 1-218, tags or fused parts left off): as above

[19] = target: T8, GST-CBP PDZ domain fusion protein (Cytohesin binding protein HE AA85-175; PDZ domain 1 of 1) (UniProt P08515 1-218 = GST); test: A/G assays
T8 construct: also called Prot
T8 sequence (P08515 1-218, tags or fused parts left off): as above

[20] = target: T9, GST-TAX33 PDZ domain fusion protein (tax interaction protein 33 AA73-162; PDZ domain 1 of 1) (UniProt P08515 1-218 = GST); test: A/G assays
T9 construct: also called TX33
T9 sequence (P08515 1-218, tags or fused parts left off): as above

[21] = target: T10, GST-KIAA0316 PDZ domain fusion protein (KIAA0316 AA197-284; PDZ domain 1 of 1) (UniProt P08515 1-218 = GST); test: A/G assays
T10 construct: also called K316
T10 sequence (P08515 1-218, tags or fused parts left off): as above

[22] = target: T11, GST-KIAA0303 PDZ domain fusion protein (KIAA0303 AA652-742; PDZ domain 1 of 1) (UniProt P08515 1-218 = GST); test: A/G assays
T11 construct: also called K303
T11 sequence (P08515 1-218, tags or fused parts left off): as above

[23] = target: T12, GST-CASK PDZ domain fusion protein (CASK AA495-584; PDZ domain 1 of 1) (mouse, UniProt P08515 1-218 = GST); test: A/G assays
T12 construct: also called mCASK
T12 sequence (P08515 1-218, tags or fused parts left off): as above

[24] = target: T13, GST-RGS12 PDZ domain fusion protein (human regulator of G-protein signalling 12 AA35-103; PDZ domain 1 of 1) (human, UniProt P08515 1-218 = GST); test: A/G assays
T13 construct: also called RSG12
T13 sequence (P08515 1-218, tags or fused parts left off): as above

[25] = target: T14, GST-41.8 kD PDZ domain fusion protein (hypothetical 41.8 kD protein AA4-85; PDZ domain 1 of 1) (UniProt P08515 1-218 = GST); test: A and G assays
T14 construct: also called hypoth
T14 sequence (P08515 1-218, tags or fused parts left off): as above

[26] = target: T14, GST-41.8 kD PDZ domain fusion protein …; test: A/G assays
[27] = target: T5, GST-NeDLG PDZ domain fusion protein …; test: A assay

Binder | binding result [1] | binding result [2] | binding result [3] | binding result [4] | binding result [5] | binding result [6] | binding result [7] | binding result [9] | binding result [10] | binding result [11] | binding result [12] | binding result [13] | binding result [14] | binding result [15] | binding result [16] | binding result [17] | binding result [18] | binding result [19] | binding result [20] | binding result [21] | other results
B1 | no binding | no binding | no binding | no binding | no binding | no binding | no binding | no binding | no binding | no binding | no binding | no binding | no binding | no binding | no binding | no binding | no binding | no binding | no binding | no binding | binding result [8]: no binding; binding result [22]: no binding; binding result [23]: no binding; binding result [24]: no binding; binding result [25]: binds
B2 | no binding | no binding | no binding | no binding | no binding | no binding | no binding | no binding | no binding | no binding | no binding | no binding | no binding | no binding | no binding | no binding | no binding | no binding | no binding | no binding | binding result [26]: no binding; binding result [22]: no binding; binding result [23]: no binding; binding result [24]: no binding; binding result [27]: binds
